69 substances from the Human Domainome abundance scans (Beltran et al. 2025) can be followed below.

± gives the uncertainty stated by the source.

The data set in a line: abundance fitness (aPCA) (normalised: wild type 0, dead -1); higher = more abundant; growth selection in yeast, the domain comes from the species named. To be noted: Homo sapiens.
In turn, “Scaffold attachment factor B1 E42M, Q15424” registered an abundance fitness of -0.15 ± 0.074.

In turn, “Scaffold attachment factor B1 E42N, Q15424” yielded an abundance fitness of -0.736 ± 0.11.

The substance “Scaffold attachment factor B1 E42P, Q15424” had an abundance fitness of -0.976 ± 0.18.

“Scaffold attachment factor B1 E42Q, Q15424” gave an abundance fitness of -0.26 ± 0.083.

Consider “Scaffold attachment factor B1 E42R, Q15424”, for which the abundance fitness is -0.903 ± 0.053.

With “Scaffold attachment factor B1 E42S, Q15424”, the abundance fitness is -0.605 ± 0.056.

Substance “Scaffold attachment factor B1 E42T, Q15424” registered an abundance fitness of -0.776 ± 0.076.

In turn, “Scaffold attachment factor B1 E42V, Q15424” gave an abundance fitness of -0.53 ± 0.053.

Turning to “Scaffold attachment factor B1 E42Y, Q15424”, the abundance fitness is -0.619 ± 0.1.

“Scaffold attachment factor B1 E59D, Q15424” came in with an abundance fitness of -0.15 ± 0.074.

“Scaffold attachment factor B1 E59F, Q15424”: the abundance fitness was -0.637 ± 0.071.

For “Scaffold attachment factor B1 E59G, Q15424”, the abundance fitness was -0.153 ± 0.076.

In turn, “Scaffold attachment factor B1 E59H, Q15424” yielded an abundance fitness of -0.087 ± 0.063.

In the case of “Scaffold attachment factor B1 E59I, Q15424”, the abundance fitness is -0.071 ± 0.067.

As to “Scaffold attachment factor B1 E59K, Q15424”, the abundance fitness is -0.152 ± 0.084.

Regarding “Scaffold attachment factor B1 E59L, Q15424”, the abundance fitness is -0.15 ± 0.052.

As for “Scaffold attachment factor B1 E59M, Q15424”, the abundance fitness is -0.131 ± 0.064.

On to “Scaffold attachment factor B1 E59N, Q15424”, for which the abundance fitness is -0.131 ± 0.065.

As for “Scaffold attachment factor B1 E59Q, Q15424”, the abundance fitness was -0.19 ± 0.096.

On to “Scaffold attachment factor B1 E59R, Q15424”, for which the abundance fitness was -0.078 ± 0.074.

In turn, “Scaffold attachment factor B1 E59S, Q15424” came in with an abundance fitness of -0.111 ± 0.051.

Substance “Scaffold attachment factor B1 E59T, Q15424” gave an abundance fitness of -0.082 ± 0.053.

Turning to “Scaffold attachment factor B1 E59V, Q15424”, the abundance fitness was -0.125 ± 0.046.

Substance “Scaffold attachment factor B1 E59W, Q15424” showed an abundance fitness of -0.408 ± 0.11.

Consider “Scaffold attachment factor B1 E59Y, Q15424”, for which the abundance fitness was -0.343 ± 0.095.

The substance “Scaffold attachment factor B1 E66C, Q15424” yielded an abundance fitness of -0.284 ± 0.069.

The substance “Scaffold attachment factor B1 E66F, Q15424” returned an abundance fitness of -0.256 ± 0.061.

With “Scaffold attachment factor B1 E66G, Q15424”, the abundance fitness was -0.218 ± 0.052.

Consider “Scaffold attachment factor B1 E66H, Q15424”, for which the abundance fitness was -0.49 ± 0.075.

Regarding “Scaffold attachment factor B1 E66I, Q15424”, the abundance fitness is -0.261 ± 0.058.

In turn, “Scaffold attachment factor B1 E66K, Q15424” showed an abundance fitness of -0.169 ± 0.082.

For “Scaffold attachment factor B1 E66L, Q15424”, the abundance fitness was -0.133 ± 0.051.

“Scaffold attachment factor B1 E66M, Q15424” registered an abundance fitness of -0.137 ± 0.046.

For the substance “Scaffold attachment factor B1 E66N, Q15424”, the abundance fitness is -0.202 ± 0.075.

Take “Scaffold attachment factor B1 E66P, Q15424”: the abundance fitness is -0.909 ± 0.097.

On to “Scaffold attachment factor B1 E66Q, Q15424”, for which the abundance fitness is -0.014 ± 0.078.

In turn, “Scaffold attachment factor B1 E66R, Q15424” had an abundance fitness of -0.202 ± 0.047.

With “Scaffold attachment factor B1 E66S, Q15424”, the abundance fitness was -0.164 ± 0.056.

In turn, “Scaffold attachment factor B1 E66T, Q15424” registered an abundance fitness of -0.11 ± 0.076.

“Scaffold attachment factor B1 E66V, Q15424”: the abundance fitness was -0.244 ± 0.05.

As for “Scaffold attachment factor B1 E66W, Q15424”, the abundance fitness was -0.43 ± 0.059.

“Scaffold attachment factor B1 E66Y, Q15424” yielded an abundance fitness of -0.288 ± 0.075.

Turning to “Scaffold attachment factor B1 E68A, Q15424”, the abundance fitness was -0.233 ± 0.05.

Turning to “Scaffold attachment factor B1 E68C, Q15424”, the abundance fitness was -0.586 ± 0.056.

As to “Scaffold attachment factor B1 E68D, Q15424”, the abundance fitness is -0.224 ± 0.073.

As for “Scaffold attachment factor B1 E68G, Q15424”, the abundance fitness was -0.289 ± 0.045.

“Scaffold attachment factor B1 E68H, Q15424” came in with an abundance fitness of -0.359 ± 0.057.

On to “Scaffold attachment factor B1 E68I, Q15424”, for which the abundance fitness was -0.469 ± 0.05.

Regarding “Scaffold attachment factor B1 E68K, Q15424”, the abundance fitness was -0.352 ± 0.07.

Regarding “Scaffold attachment factor B1 E68M, Q15424”, the abundance fitness was -0.461 ± 0.054.

With “Scaffold attachment factor B1 E68N, Q15424”, the abundance fitness was -0.346 ± 0.056.

With “Scaffold attachment factor B1 E68P, Q15424”, the abundance fitness is -0.802 ± 0.051.

“Scaffold attachment factor B1 E68Q, Q15424” displayed an abundance fitness of -0.279 ± 0.049.

In the case of “Scaffold attachment factor B1 E68R, Q15424”, the abundance fitness was -0.341 ± 0.051.

“Scaffold attachment factor B1 E68S, Q15424” returned an abundance fitness of -0.236 ± 0.052.

“Scaffold attachment factor B1 E68T, Q15424” came in with an abundance fitness of -0.314 ± 0.054.

Substance “Scaffold attachment factor B1 E68V, Q15424” showed an abundance fitness of -0.265 ± 0.053.

Regarding “Scaffold attachment factor B1 E68W, Q15424”, the abundance fitness is -0.836 ± 0.07.

“Scaffold attachment factor B1 E74A, Q15424”: the abundance fitness was -0.071 ± 0.067.

“Scaffold attachment factor B1 E74C, Q15424”: the abundance fitness is -0.18 ± 0.073.

Take “Scaffold attachment factor B1 E74D, Q15424”: the abundance fitness was -0.312 ± 0.074.

For the substance “Scaffold attachment factor B1 E74F, Q15424”, the abundance fitness was -0.175 ± 0.069.

In turn, “Scaffold attachment factor B1 E74G, Q15424” displayed an abundance fitness of -0.202 ± 0.063.

Take “Scaffold attachment factor B1 E74H, Q15424”: the abundance fitness is -0.608 ± 0.12.

In the case of “Scaffold attachment factor B1 E74I, Q15424”, the abundance fitness was -0.215 ± 0.086.

Regarding “Scaffold attachment factor B1 E74K, Q15424”, the abundance fitness is -0.213 ± 0.089.

On to “Scaffold attachment factor B1 E74L, Q15424”, for which the abundance fitness is -0.125 ± 0.053.

The substance “Scaffold attachment factor B1 E74M, Q15424” displayed an abundance fitness of -0.119 ± 0.068.

Regarding “Scaffold attachment factor B1 E74N, Q15424”, the abundance fitness was -0.366 ± 0.09.
